Read-outs that look alike come from different tables or passages of the source.

Among the data in US20070105152 are Relative kcat/Km (relative to AcTGG(AcK)APRK = 1) values, retold here.

Data set [1] concerns T1, AcTGG(AcK)AP.
T1 sequence: TGGKAP

Data set [2] has as its system T2, AcGG(AcK)APRKQ.
T2 sequence: GGKAPRKQ

The subject of data set [3] is T3, AcGG(AcK)APR.
T3 sequence: GGKAPR

For data set [4], the system named is T4, AcTGG(AcK)APRK.
T4 sequence: TGGKAPRK

The test system of data set [5] is T5, AcGG(AcK)APRK.
T5 sequence: GGKAPRK

The test system of data set [6] is T6, AcGG(AcK)AP.
T6 sequence: GGKAP

Data set [7] relates to T7, AcSTGG(AcK)AP.
T7 sequence: STGGKAP

Data set [8] relates to T8, AcKSTGG(AcK)AP.
T8 sequence: KSTGGKAP

In data set [9] the test system is T9, AcTGG(AcK)APR.
T9 sequence: TGGKAPR

Data set [10] concerns T10, AcSTGG(AcK)APR.
T10 sequence: STGGKAPR

Data set [11] has as its target T11, AcTGG(AcK)APRK.
T11 chain: TGGKAPRK

The target of data set [12] is T12, AcSTGG(AcK)AP.
T12 chain: STGGKAP

Data set [13] deals with T13, AcGG(AcK)APRK.
T13 chain: GGKAPRK

Data set [14] has as its target T14, AcGG(AcK)APRKQ.
T14 chain: GGKAPRKQ

The target in data set [15] is T15, AcGG(AcK)APR.
T15 chain: GGKAPR

The target in data set [16] is T16, AcGG(AcK)AP.
T16 chain: GGKAP

Data set [17] addresses T17, AcSTGG(AcK)APR.
T17 chain: STGGKAPR

In data set [18] the target is T18, AcTGG(AcK)AP.
T18 chain: TGGKAP

The target in data set [19] is T19, AcKSTGG(AcK)AP.
T19 chain: KSTGGKAP

Data set [20] addresses T20, AcTGG(AcK)APR.
T20 chain: TGGKAPR

On to Trypanosoma brucei Sir2, for which the Relative kcat/Km (relative to AcTGG(AcK)APRK = 1) is 0.74 in the data set on AcTGG(AcK)AP [1]; 1.43 in the data set on AcGG(AcK)APRKQ [2]; 1.18 in the data set with AcGG(AcK)APR [3]; 1 in the data set with AcTGG(AcK)APRK [4]; 1.82 with AcGG(AcK)APRK [5]; 1.27 in the data set with AcGG(AcK)AP [6]. Further, the Relative kcat/Km (relative to AcTGG(AcK)APRK = 1) with AcSTGG(AcK)AP [7] came out at 0.59; with AcKSTGG(AcK)AP [8] it was 1.81; with AcTGG(AcK)APR [9], 0.89; in the data set on AcSTGG(AcK)APR [10], 1.39.
Take yeast Sir2: the Relative kcat/Km (relative to AcTGG(AcK)APRK = 1) amounted to 1.62 in the data set on AcTGG(AcK)AP [1]; 2.09 with AcGG(AcK)APRKQ [2]; 2.53 in the data set with AcGG(AcK)APR [3]; 1 in the data set with AcTGG(AcK)APRK [4]; 2.33 with AcGG(AcK)APRK [5]; 1.51 with AcGG(AcK)AP [6]. Moreover, the Relative kcat/Km (relative to AcTGG(AcK)APRK = 1) amounted to 1.83 with AcSTGG(AcK)AP [7], 2.12 in the data set with AcKSTGG(AcK)AP [8], 1.72 in the data set on AcTGG(AcK)APR [9] and 1.6 in the data set on AcSTGG(AcK)APR [10].

B1: SIRT2 (protein)
chain: MAEPDPSHPLETQAGKVQEAQDSDSDSEGGAAGGEADMDFLRNLFSQTLSLGSQKERLLDELTLEGVARYMQSERCRRVICLVGAGISTSAGIPDFRSPSTGLYDNLEKYHLPYPEAIFEISYFKKHPEPFFALAKELYPGQFKPTICHYFMRLLKDKGLLLRCYTQNIDTLERIAGLEQEDLVEAHGTFYTSHCVSASCRHEYPLSWMKEKIFSEVTPKCEDCQSLVKPDIVFFGESLPARFFSCMQSDFLKVDLLLVMGTSLQVQPFASLISKAPLSTPRLLINKEKAGQSDPFLGMIMGLGGGMDFDSKKAYRDVAWLGECDQGCLALAELLGWKKELEDLVRREHASIDAQSGAGVPNPSTSASPKKSPPPAKDEARTTEREKPQ
For B1, the Relative kcat/Km (relative to AcTGG(AcK)APRK = 1) with AcTGG(AcK)APRK [11] worked out at 1; with AcSTGG(AcK)AP [12], 0.78; with AcGG(AcK)APRK [13], 0.68; with AcGG(AcK)APRKQ [14], 0.66; with AcGG(AcK)APR [15] it was 0.6; with AcGG(AcK)AP [16], 0.56. Besides, the Relative kcat/Km (relative to AcTGG(AcK)APRK = 1) with AcSTGG(AcK)APR [17] is 0.93; in the data set with AcTGG(AcK)AP [18], 0.55; in the data set with AcKSTGG(AcK)AP [19] it was 0.59; in the data set with AcTGG(AcK)APR [20], 0.72.
